Results reported in the supplement of paper PMC9233669.
Variants at the floor of the assay were thinned out.

What was measured:
biotinyl-Met-oxazolone = assay: self-aminoacylation, catalytic enhancement (BMO) (fold over background); higher = more active; k-Seq, kA / k0A0; sequences stand for … in GGGAAUGGAUCCACAUCUACGAAUUC…UUCACUGCAGACUUGACGAAGCUG
Procedure, shortened: (§1)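 Working in 50 μL HEPES/NaCl/KCl/MgCl2/CaCl2 buffer with 5% acetonitrile at pH 6.9–7.0, mutagenized RNA pools (0.43 μM; 21-nt variable region) were reacted with 2–1250 μM of each biotinyl-aminoacyl-oxazolone for 90 minutes at room temperature. Streptavidin capture followed, with quantification by triplicate qPCR and Illumina sequencing. Catalytic enhancement is reported as median kA over the uncatalyzed rate, the low-activity peak of a bimodal Gaussian fit to the data.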

biotinyl-Leu-oxazolone = assay: self-aminoacylation, catalytic enhancement (BLO) (fold over background); higher = more active; k-Seq, kA / k0A0; sequences stand for … in GGGAAUGGAUCCACAUCUACGAAUUC…UUCACUGCAGACUUGACGAAGCUG
Procedure, shortened: as §1

biotinyl-Trp-oxazolone = assay: self-aminoacylation, catalytic enhancement (BWO) (fold over background); higher = more active; k-Seq, kA / k0A0; sequences stand for … in GGGAAUGGAUCCACAUCUACGAAUUC…UUCACUGCAGACUUGACGAAGCUG
Procedure, shortened: as §1

biotinyl-Phe-oxazolone = assay: self-aminoacylation, catalytic enhancement (BFO) (fold over background); higher = more active; k-Seq, kA / k0A0; sequences stand for … in GGGAAUGGAUCCACAUCUACGAAUUC…UUCACUGCAGACUUGACGAAGCUG
Procedure, shortened: as §1

biotinyl-Ile-oxazolone = assay: self-aminoacylation, catalytic enhancement (BIO) (fold over background); higher = more active; k-Seq, kA / k0A0; sequences stand for … in GGGAAUGGAUCCACAUCUACGAAUUC…UUCACUGCAGACUUGACGAAGCUG
Procedure, shortened: as §1

biotinyl-Val-oxazolone = assay: self-aminoacylation, catalytic enhancement (BVO) (fold over background); higher = more active; k-Seq, kA / k0A0; sequences stand for … in GGGAAUGGAUCCACAUCUACGAAUUC…UUCACUGCAGACUUGACGAAGCUG
Procedure, shortened: as §1

Row | Sequence | self-aminoacylation (biotinyl-Met-oxazolone) | self-aminoacylation (biotinyl-Leu-oxazolone) | self-aminoacylation (biotinyl-Trp-oxazolone) | self-aminoacylation (biotinyl-Phe-oxazolone) | self-aminoacylation (biotinyl-Ile-oxazolone) | self-aminoacylation (biotinyl-Val-oxazolone)
1 | AAAUUUGCAAAUAGUCGCAAG [Fam3.1 aminoacylation ribozyme variant] | 1.35 | 1.82 | 1.82 | 2.27 | 1.9 | 1.37
2 | AAAUUUGCCAAUAGUCGCAAG [Fam3.1 aminoacylation ribozyme variant] | 1.69 | 1.76 | 2.14 | 2.17 | 1.77 | 1.65
3 | AAAUUUGCUAAUAGUCCCAAG [Fam3.1 aminoacylation ribozyme variant] | 0.644 | 0.923 | 0.979 | 1.68 | 1.24 | 1.03
4 | AAAUUUGCUAAUAGUCGCACG [Fam3.1 aminoacylation ribozyme variant] | 1.38 | 1.42 | 1.81 | 1.47 | 1.58 | 1.72
5 | AAAUUUGCUAAUAGUCGCCAG [Fam3.1 aminoacylation ribozyme variant] | 1.75 | 1.67 | 2.92 | 4.62 | 2.08 | 2.15
6 | AAAUUUGCUAAUAGUCGCGAG [Fam3.1 aminoacylation ribozyme variant] | 2.44 | 2.53 | 2.48 | 1.34 | 2.12 | 1.76
7 | AAAUUUGCUAAUAGUUGCAAG [Fam3.1 aminoacylation ribozyme variant] | 1.24 | 1.08 | 1.71 | 1.44 | 1.61 | 1.21
8 | AAAUUUGCUCAUAGUCGCAAG [Fam3.1 aminoacylation ribozyme variant] | 2.13 | 1.55 | 1.56 | 2.13 | 1.76 | 1.57
9 | AAAUUUGCUUAUAGUCGCAAG [Fam3.1 aminoacylation ribozyme variant] | 1.91 | 1.93 | 2.14 | 2.37 | 2.26 | 1.59
10 | AAAUUUGGUAAUAGUCGCAAG [Fam3.1 aminoacylation ribozyme variant] | 1.88 | 1.86 | 2.27 | 2.12 | 2.2 | 1.74
11 | AAAUUUUCUAAUAGUCGCAAG [Fam3.1 aminoacylation ribozyme variant] |  | 2.46 |  | 2.42 | 2.15 | 2.11
12 | AACUUCGCUAAUAGUCGCAAG [Fam3.1 aminoacylation ribozyme variant] | 3.5 | 3.44 | 3.06 | 14.5 | 2.98 | 3.03
13 | AACUUUGCUAAUAGUCGCACG [Fam3.1 aminoacylation ribozyme variant] |  | 2.15 | 3.12 | 3.22 | 2.49 | 2.05
14 | AACUUUGCUAAUAGUCGCAUG [Fam3.1 aminoacylation ribozyme variant] | 2.35 | 2.79 | 2.85 | 2.98 | 2.77 | 1.89
15 | AACUUUGCUAAUAGUCGCCAG [Fam3.1 aminoacylation ribozyme variant] | 2.59 | 3.5 | 2.35 | 10.9 | 2.68 | 2.87
16 | AACUUUGCUGAUAGUCGCAAG [Fam3.1 aminoacylation ribozyme variant] | 2.81 | 3.01 | 3.67 | 3.74 | 2.81 | 2.24
17 | AACUUUGGUAAUAGUCGCAAG [Fam3.1 aminoacylation ribozyme variant] | 2.22 | 3.08 | 2.24 | 3.84 | 2.58 | 2.15
18 | AAGAUUACUAAUAGUCGCAAG [Fam3.1 aminoacylation ribozyme variant] | 1.77 | 1.44 | 1.92 | 2.29 | 1.6 | 1.41
19 | AAGAUUGCUAAUAGUCCCAAG [Fam3.1 aminoacylation ribozyme variant] | 0.597 | 0.778 | 0.756 | 2.39 | 1.28 | 0.756
20 | AAGAUUGCUAAUAGUCGCAAA [Fam3.1 aminoacylation ribozyme variant] | 1.37 | 1.43 | 2.09 | 1.39 | 1.58 | 1.3
21 | AAGAUUGCUAAUAGUCGCUAG [Fam3.1 aminoacylation ribozyme variant] | 0.811 | 0.963 | 0.937 | 0.773 | 1.23 | 1.04
22 | AAGCACCUAGGUCAUCGGGUG [Fam2.2 aminoacylation ribozyme variant] | 3.13 | 2.66 | 4.45 | 23.6 | 2.84 | 2.91
23 | AAGCGUGCUAAUAGUCGCAAG [Fam3.1 aminoacylation ribozyme variant] | 2.62 |  | 2.33 | 4.08 | 2.02 | 2.05
24 | AAGCUUGCAAAUAGUCGCAAG [Fam3.1 aminoacylation ribozyme variant] | 2.53 | 2.07 | 2.14 | 7.03 | 2.14 | 2.25
25 | AAGCUUGCUAAAAGUCGCAAG [Fam3.1 aminoacylation ribozyme variant] | 3.31 | 3.1 | 3.43 | 5.12 | 2.16 | 1.79
26 | AAGCUUGCUAAGAGUCGCAAG [Fam3.1 aminoacylation ribozyme variant] | 2.23 | 2.66 | 3.08 | 3.44 | 2.51 | 2.44

Row | Sequence | self-aminoacylation (biotinyl-Met-oxazolone) | self-aminoacylation (biotinyl-Leu-oxazolone) | self-aminoacylation (biotinyl-Trp-oxazolone) | self-aminoacylation (biotinyl-Phe-oxazolone) | self-aminoacylation (biotinyl-Ile-oxazolone) | self-aminoacylation (biotinyl-Val-oxazolone)
27 | AAGCUUGCUAAUAGGCGCAAG [Fam3.1 aminoacylation ribozyme variant] | 1.12 | 1.66 | 1.2 | 1.46 | 1.38 | 1.16
28 | AAGGUUGCUAAUAGGCGCAAG [Fam3.1 aminoacylation ribozyme variant] | 0.729 | 1.17 | 1.17 | 1.11 | 1.19 | 0.796
29 | AAGGUUGCUAAUAGUCGCGAG [Fam3.1 aminoacylation ribozyme variant] | 1.64 | 0.991 | 1.64 | 2.49 | 1.56 | 1.5
30 | AAGGUUGCUAAUAGUCUCAAG [Fam3.1 aminoacylation ribozyme variant] | 1.05 | 0.944 | 1.52 | 2.46 | 1.13 | 0.996
31 | AAGGUUGCUAAUAUUCGCAAG [Fam3.1 aminoacylation ribozyme variant] | 1.22 | 2.03 | 1.22 | 1.6 | 1.59 | 1.26
32 | AAGGUUGCUAAUGGUCGCAAG [Fam3.1 aminoacylation ribozyme variant] | 0.949 | 0.828 | 0.994 | 1.68 | 1.06 | 1
33 | AAGGUUGGUAAUAGUCGCAAG [Fam3.1 aminoacylation ribozyme variant] | 1.59 | 1.55 | 2.15 | 2.09 | 1.48 | 1.38
34 | AAGUAUGAUAAUAGUCGCAAG [Fam3.1 aminoacylation ribozyme variant] | 1.13 | 1.1 | 1.2 | 1.35 | 1.22 | 1.28
35 | AAGUAUGCUAAUAAUCGCAAG [Fam3.1 aminoacylation ribozyme variant] | 1.28 | 1.14 | 1.39 | 2 | 1.45 | 1.05
36 | AAGUAUGCUAAUAGUCGAAAG [Fam3.1 aminoacylation ribozyme variant] | 1.7 | 1.31 | 4.62 | 15.7 | 1.48 | 1.21
37 | AAGUAUGCUAAUAGUCGCAAU [Fam3.1 aminoacylation ribozyme variant] | 2.13 | 1.64 | 1.75 | 1.96 | 1.9 | 1.52
38 | AAGUAUGCUAAUAGUCGCAUG [Fam3.1 aminoacylation ribozyme variant] | 1.45 | 1.55 | 1.84 | 1.66 | 1.34 | 1.09
39 | AAGUAUGCUAAUCGUCGCAAG [Fam3.1 aminoacylation ribozyme variant] | 1.71 | 1.37 | 1.76 | 2.35 | 1.81 | 1.56
40 | AAGUAUGCUCAUAGUCGCAAG [Fam3.1 aminoacylation ribozyme variant] | 1.5 | 1.3 | 2.78 | 4.07 | 1.83 | 1.3
41 | AAGUAUGCUGAUAGUCGCAAG [Fam3.1 aminoacylation ribozyme variant] | 1.94 | 1.91 | 1.96 | 1.92 | 1.84 | 1.65
42 | AAGUCUGCAAAUAGUCGCAAG [Fam3.1 aminoacylation ribozyme variant] | 0.888 | 0.891 | 1.22 | 1.15 | 0.902 | 0.671
43 | AAGUCUGCGAAUAGUCGCAAG [Fam3.1 aminoacylation ribozyme variant] | 1.76 | 1.38 | 1.2 | 8.07 | 1 | 0.979
44 | AUUCACCGAGCUCAUCGGGUG [Fam2.2 aminoacylation ribozyme variant] | 2.08 | 2.46 |  | 17.4 | 2.4 | 3.41
45 | AUUCACCUAGGUCAUCGCCUG [Fam2.2 aminoacylation ribozyme variant] |  | 3.01 | 2.11 | 8.71 | 2.01 | 2.44
46 | AUUCUCCUAGGUCAUCGGGGG [Fam2.2 aminoacylation ribozyme variant] | 3.48 | 3.88 | 3 |  | 2.7 | 3.29
47 | CCAAACUUCAAGCAAUCGGGC [Fam1B.1 aminoacylation ribozyme variant] | 2.17 |  | 2.01 |  | 2.08 | 2.26
48 | CCACACUUCAAGCAACCGGGC [Fam1B.1 aminoacylation ribozyme variant] |  | 3.43 | 4.79 | 3.1 | 2.77 | 3.18
49 | CCACACUUCAGGCAAUCGCUC [Fam1B.1 aminoacylation ribozyme variant] |  | 2.71 |  | 17.5 | 2.5 | 2.04
50 | CCAGACUUCAAGCAUUCGGUC [Fam1B.1 aminoacylation ribozyme variant] | 2.12 | 2.08 |  |  | 2.03 | 2.16
51 | CUUCACCUAGUUCAUCGGGUG [Fam2.2 aminoacylation ribozyme variant] | 2.54 | 2.87 | 2.53 |  | 2.15 | 2.27
52 | GAGUUGGCUAAUAGUCGCAAG [Fam3.1 aminoacylation ribozyme variant] | 2.04 |  | 3.02 | 2.86 | 2.02 | 2.22
